Tested on: MS2 coat protein
Test: apparent KD of MS2 coat protein; designed switch direction (-1 OFF switch, 1 ON switch): -1; higher = weaker reporter binding
Procedure, shortened: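 SNAP-549-labelled MS2 coat protein was titrated, doubling from 0.7 or 1.5 nM to 3 µM, over designed RNA switches transcribed on Illumina chips by stalled E. coli RNA polymerase. Runs were done without input, with 200 uM small-molecule ligand, or with an oligonucleotide input. Apparent KD is the per-design median over clusters of curve-fitted normalised fluorescence.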

[1] = Eterna round: R95, input ligand: microRNA oligo, concentration not stated
[2] = Eterna round: R95, input ligand: FMN 200 uM
[3] = Eterna round: R95, input ligand: none
[4] = input ligand: microRNA oligo, concentration not stated

Sequence | apparent KD of MS2 coat protein [1] [µM] | apparent KD of MS2 coat protein (input ligand: FMN 200 uM) [µM] | apparent KD of MS2 coat protein (input ligand: none) [µM] | apparent KD of MS2 coat protein [2] [µM] | apparent KD of MS2 coat protein [3] [µM] | apparent KD of MS2 coat protein [4] [µM]
GAGUGACAUGAGGAUCACCCAUGUGAGGAUAUCGGACGGACCUAGUUAGCUUCCGCCGCGAGAAGGCACAUCGG [Exclusion 1 V24] (puzzle: Exclusion 1) | 0.0631 | – | – | – | – | –
GUCUCAGCUGAGGAUAUAAACUCCCUUGAGGGUUUAGAAGGCAGUACAUGAGGAUCACCCAUGUGGUUCGUUUG [eternacac ex6r4 sub27] (Eterna round: R97, puzzle: Exclusion 6) | – | 0.486 | 0.139 | – | – | –
GAAUCGCAUGUUAGGAUAUAUCUGUCGGAGUAUGGAUAGAAGGGACAUGAGGAUCACCCAUGUGAAGGCCGUUC [Eternabot (L1) Solution 58] (Eterna round: R97, puzzle: Brourd's mod of Exclusion 4) | – | 0.21 | 0.0901 | – | – | –
GAUACACAUGAGGAUCACCCAUGUUAGGAUAUUAGCGGGAAAGCUGUCAAAACGCCGAUGAGAAGGAACAGGAG [Excls1-IX] (puzzle: Exclusion 1) | 0.0319 | – | – | – | – | –
AAGAAACAUGAGGAUCACCCAUGUGAGGAUAUGAUCAAGAAAAGAAAAGAAAGAAGAAUCAGAAGGCACAAAGG [salish99-ex1_r3_044] (puzzle: Exclusion 1) | 0.176 | – | – | 0.295 | 0.342 | –
CUGGUCCGAGGAUAUAUGAUGUGAAACAUGAGGAUCACCCAUGUAAUAUUAUGGAUGAAAAUAGAAGGCGGACUAG [Mat - Exclusion 5 - JL mod - D37] (puzzle: Exclusion 5) | 0.0661 | – | – | 0.0526 | 0.0627 | –
ACAUGAGGAUCACCCAUGUCCGUCUGGUCUGUCUCGGCUGUCGAGGAUAUAGCCCGGUAUCCGCGCUAGAAGGUGGGAGUCGGC [Aenatbe mod 98] (Eterna round: R96, puzzle: Exclusion NG 3) | – | 0.0314 | 0.0373 | – | – | 0.0289
UAGGAGUCAGGAUAUGCGAGAGAUUGAAGUAAGGGAUGAGAGCAGAAGGGACAUGAGGAUCACCCAUGUAAGGA [JR_Exclu4_Sub092] (puzzle: Exclusion 4) | 0.0431 | – | – | 0.0477 | 0.052 | –
CCGCUACAUGAGGAUCACCCAUGUCAGGAUAUCGUACGUUCGUCGAUAGACGAUCGUACGAGAAGGGUGUGCGG [Mat - Exclusion 1 - Eli Mod - D36] (Eterna round: R97, puzzle: Exclusion 1) | – | 0.0814 | 0.139 | – | – | –
CUGAGCUGAGGAUAUACAUGAGGAUCACCCAUGUGUUCCAGCUUGCGUACAGGCAGAUGUAGAAGGCAGUUCGG [JL-ex3-3.35 Brourd mod] (puzzle: Exclusion 3) | 0.0389 | – | – | – | – | –
CCGGUUGGCGCAGGAUAUACAUGAGGAUCACCCAUGUUCAUGAGCAUCAGCCAUGAGUUUUUGUUGUAGAAGGGUGGCCCGGCC (Eterna round: R96, puzzle: Exclusion NG 2) | – | 0.0196 | 0.0235 | – | – | 0.0156
CUCAUGUGAGGAUAUGUGAUCUGCCUUCUAUGUAGAUGAUCACAGAAGGCACAUGAGGAUCACCCAUGUAGAUC [Ex4 - 3 - 27] (puzzle: Exclusion 4) | 0.0692 | – | – | – | – | –
CACCGUUACAGAGGAUAUGUUACAUGAGGAUCACCCAUGUAAUAAAUGAGAAUUUCGAAUGUAAUACAGAAGGCUGGAAUCGGC [Ostracism 75 - Jieux - Exclusion NG 2] (Eterna round: R96, puzzle: Exclusion NG 2) | – | 0.0383 | 0.0213 | – | – | 0.0158
CUUUUGUGAGGAUAUCAGUAGUAAAAAAAUAAUAUUACUACUGAGAAGGCACAUGAGGAUCACCCAUGUUCCUC [salish99_ex4_r3_024] (puzzle: Exclusion 4) | 0.0384 | – | – | – | – | –
CCGGCUUAGGAGGAUAUCAGAGUCGAAAGACUCUGAGAAGGCCUAACAUGAGGAUCACCCAUGUGUCCUACCGG [Mod of Eli 7 - Jieux - Exclusion 6] (Eterna round: R97, puzzle: Exclusion 6) | – | 0.0815 | 0.0251 | – | – | –
CGAUGUUAUGUCAGGAUAUGCGUUGCGAAAGCAAUGUAGAAGGGACAUGAGGAUCACCCAUGUGCUAACCAUCG [Omei A 10] (puzzle: Brourd's mod of Exclusion 4) | 0.0172 | – | – | – | – | –
AAGAAACGGCAGGAUAUCCAGUCGAGAGAAAUAGGAGAAGGGCCAACAUGAGGAUCACCCAUGUCGGUGGCCUC [Rariinon] (Eterna round: R97, puzzle: Exclusion 6) | – | 0.145 | 0.0785 | – | – | –
AAGGAGUUAGGAUAUCGAAGAAGAAGAAGAAGAAGAAGAAGCGAGAAGGAACAUGAGGAUCACCCAUGUAAGAA [JR_Exclu4_Sub028] (puzzle: Exclusion 4) | 0.0505 | – | – | 0.0325 | 0.0415 | –

Sequence | apparent KD of MS2 coat protein [1] [µM] | apparent KD of MS2 coat protein (input ligand: FMN 200 uM) [µM] | apparent KD of MS2 coat protein (input ligand: none) [µM] | apparent KD of MS2 coat protein [2] [µM] | apparent KD of MS2 coat protein [3] [µM] | apparent KD of MS2 coat protein [4] [µM]
AUACCAUGCCGCCUAAUAGCUUUUUGCUCGUCUUAUAAAACAUGAGGAUCACCCAUGUAAAACAUGUGGCGUGACCC [Maridi] (puzzle: Sensor v3, turn-off variant 2) | 0.0125 | – | – | 0.163 | 0.0974 | –
ACAAGCUUAAAAAUCCUAAACAUGAGGAUCACCCAUGUUCGUCUUAUAAAAAUAAAAAUAAAAAACAAAAAAUAAAA [Sensor V2: 71] (Eterna round: R96, puzzle: Sensor v2, turn-off variant) | – | 0.039 | 0.0393 | – | – | 0.228
UCUGGUCGAGGAUAUACAUGAGGAUCACCCAUGUGGUUACGUGACGAUAGUCACGAAUGUAGAAGGCGACCAGA [E3/4-A2] (Eterna round: R97, puzzle: Exclusion 3) | – | 0.326 | 0.23 | – | – | –
UUAGAAUUGUUAGGAUAUUAAUUAUUUUUUAGUAUGAUCUACAUGAGGAUCACCCAUGUUAAAUAUAAGAAGGAACGUUAUAUU [JR_ExcNG2_Sub096] (Eterna round: R96, puzzle: Exclusion NG 2) | – | – | – | – | – | 0.0499
GGUGAGCGAGGAUAUACAUGAGGAUCACCCAUGUGACGCUGUCCUUGGAAGAACCUCUGUAGAAGGCGCGGAAU [Veisrien] (Eterna round: R97, puzzle: Exclusion 3) | – | 0.0235 | 0.162 | – | – | –
UUAUUUUUUGAGGAUAUGCGACGUUUUUUCGUCGUAGAAGGCGAUACAUGAGGAUCACCCAUGUUUAUGGGCAU [LRO-Ex6-13] (puzzle: Exclusion 6) | 0.0738 | – | – | – | – | –
UUGUUAUGUGUAGGAUAUGCGUGUUAUUAUUAUGCAGAAGGACAUGAGGAUCACCCAUGUGUAUUAUUAUUAUAUAUUAUAUAU [Title] (Eterna round: R96, puzzle: Exclusion NG 1) | – | 0.02 | 0.0199 | – | – | 0.0158
GUCAGCUCGUGAGGAUAUACAUGCGUGCUUCGGCACGAAUUUAAGAUCACAUGAGGAUCACCCAUGUAGAAGGUACGAGCUGAU [ENG2/3-C2] (Eterna round: R96, puzzle: Exclusion NG 2) | – | 0.59 | 0.387 | – | – | 0.32
AAUAAACAUGAGGAUCACCCAUGUGAGGAUAUGCAAAUAAAUAAAUAAAUAAAUAAUAGUAGAAGGCGCAAUAA [Excls1-I] (puzzle: Exclusion 1) | 0.0526 | – | – | 0.034 | 0.063 | –
GUCAGCUCGUGAGGAUAUACAUGAGGAUCACCCAUGUGGUCAAUAGCAGCUUCGGCUGCAAUAAUGUAGAAGGCACGAGCUGAC [ENG2/8-D] (Eterna round: R96, puzzle: Exclusion NG 2) | – | 0.0574 | 0.208 | – | – | 1.03
CAGCUGAAUGUGAGGAUAUGUCUAGCUGCGGCUAGACAGAAGGCACAUGAGGAUCACCCAUGUCUCAACAGCUG [BmEx4/2-D3] (Eterna round: R97, puzzle: Brourd's mod of Exclusion 4) | – | 0.414 | 0.0355 | – | – | –
CCAAGCUUAUUCAUUAACCACAUGAGGAUCACCCAUGUAUAGGCAAUUAUGACUGGGCAAUGUGGUGCUCGUCUUAU [Sensor-V1 #28] (Eterna round: R97, puzzle: Sensor, turn-off variant 1) | – | 0.0395 | 0.0413 | – | – | –
CGAAAGUUAGGAUAUGCCCGGAACGACAUGAGGAUCACCCAUGUUAGCAAGGGACCUGGCGCAGAAGGAACGGAUA [EX5 C.20] (Eterna round: R97, puzzle: Exclusion 5) | – | 0.0202 | 0.0193 | – | – | –
UUUUUAGUGCUUUUUAAGUACAUGAGGAUCACCCAUGUACUUGUCUGGUGGUCCGGACAAGCUUUUUGCUCGUCUAA [Sensor v3 - turn-off variant 1 - 1] (puzzle: Sensor v3, turn-off variant 1) | 0.033 | – | – | 0.0489 | 0.0597 | –
ACUCCUCCUGUUAGGAUAUGCAUCGGGCUUCCGCAGCAGAAGGAACAUGAGGAUCACCCAUGUCAAAUAAAAUC [Inxebexe] (puzzle: Brourd's mod of Exclusion 4) | 0.0189 | – | – | – | – | –
AAUACAAGCUAUUGAUCCCACAUGAGGAUCACCCAUGUAUAUGCCCGUGACACGUGCAUGACGAUAGCUCGUCUUAU [Sensor-V1 #60] (Eterna round: R97, puzzle: Sensor, turn-off variant 1) | – | 0.0858 | 0.102 | – | – | –
AGAACAUCAGGAUAUCCAUGACACUACAUGAGGAUCACCCAUGUGAAUCUCCUCAAGGCGGGAGAAGGGAUGUUUG [Eternabot (L1) Solution 34] (Eterna round: R97, puzzle: Exclusion 5) | – | 0.272 | 0.0867 | – | – | –

Source: the supplement of paper PMC9170038
